Measurements reported in patent US20150093383A1 (ONO PHARMACEUTICAL, published 2015).
Square brackets hold non-standard residues; d marks the D form. Ends that are not written are not given here. * marks the point of attachment. Biotin = O=C1N[C@H]2[C@H](CS[C@H]2CCCCC(=O)*)N1; pY = N[C@@H](Cc1ccc(OP(=O)(O)O)cc1)C(=O)O

Legend:
SHP-1 [1] = target: T1, SHP-1 (mouse (endogenous in mouse B cell …, UniProt P29351 1-595)); assay: pull-down of A20IIA1.6 lysate with biotinylated phosphopeptide, Western blotting
T1 construct: Detected by Western blotting with a Santacruz primary antibody; also called phosphatase
Description: (§1) The ITIM domain which is a sequence important for BIR1 in transmitting inhibitory signal and the binding phosphatase were identified. Peptides (Y3: Biotin-HSQELQ³¹³YATPVF (SEQ ID NO:23), Y5: Biotin-DSYKSG³³⁶YVYSEL (SEQ ID NO:24), Y6: Biotin-YKSGYV³³⁸YSELNF (SEQ ID NO:25)) containing intracellular tyrosine of BIR1 (SEQ ID NO:1) and their corresponding phosphorylated peptides (pY3: Biotin-HSQELQ³¹³(pY)ATPVF (SEQ ID NO:26), pY5: Biotin-DSYKSG³³⁶(pY)VYSEL (SEQ ID NO:27), pY6: Biotin-YKSGYV³³⁸(pY)SELNF (SEQ ID NO:28)) were synthesized (consigned to Sigma Genosys). A peptide containing the ITIM sequence of mouse PIR-B and its phosphorylated peptide (Y3: Biotin-ESQDVT⁷⁹⁴YAQLCS (SEQ ID NO:29) and pY3: Biotin-ESQDVT⁷⁹⁴(pY)AQLCS (SEQ ID NO:30)) were synthesized as positive controls. These peptides were connected to Protein A/G PLUS-Agarose (manufactured by Santacruz) via an anti-biotin antibody (manufactured by Sigma) and then allowed to react with a lysate of A20IIA1.6 cell at 4° C. for 2 hours. After immunoprecipitation, western blotting was carried out in the usual way. The membrane was allowed to react with primary antibodies for SHP-1, SHP-2 and SHIP-1 (manufactured by Santacruz), and then allowed to react with an (HRP)-labeled secondary antibody (manufactured by Santacruz), and the bands were detected using an ECL plus Western Blotting Detection System (manufactured by Amersham Biosciences).

SHP-2 [2] = target: T2, SHP-2 (mouse (endogenous in mouse B cell …, UniProt P35235 2-593)); assay: as above
T2 construct: Detected by Western blotting with a Santacruz primary antibody; also called phosphatase
T2 sequence (looked up): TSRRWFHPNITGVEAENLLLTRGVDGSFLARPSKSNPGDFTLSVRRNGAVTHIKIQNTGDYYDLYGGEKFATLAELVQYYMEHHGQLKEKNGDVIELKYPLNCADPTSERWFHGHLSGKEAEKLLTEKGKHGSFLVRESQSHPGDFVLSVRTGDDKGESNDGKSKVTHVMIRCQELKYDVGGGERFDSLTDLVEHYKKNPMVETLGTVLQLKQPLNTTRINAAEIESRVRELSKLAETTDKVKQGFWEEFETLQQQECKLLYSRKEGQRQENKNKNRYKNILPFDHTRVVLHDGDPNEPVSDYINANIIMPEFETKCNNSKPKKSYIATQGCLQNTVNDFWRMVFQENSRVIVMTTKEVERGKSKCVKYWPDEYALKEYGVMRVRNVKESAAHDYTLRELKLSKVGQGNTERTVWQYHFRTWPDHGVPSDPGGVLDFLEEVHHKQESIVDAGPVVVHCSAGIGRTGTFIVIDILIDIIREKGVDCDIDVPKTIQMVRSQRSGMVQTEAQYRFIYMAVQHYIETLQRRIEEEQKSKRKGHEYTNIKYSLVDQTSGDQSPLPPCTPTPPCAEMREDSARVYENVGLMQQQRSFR
Description: as §1

SHIP-1 [3] = target: T3, SHIP-1 (mouse (endogenous in mouse B cell …, UniProt Q9ES52 1-1191, limits assumed)); assay: as above
T3 construct: Detected by Western blotting with a Santacruz primary antibody; also called phosphatase
T3 sequence (looked up): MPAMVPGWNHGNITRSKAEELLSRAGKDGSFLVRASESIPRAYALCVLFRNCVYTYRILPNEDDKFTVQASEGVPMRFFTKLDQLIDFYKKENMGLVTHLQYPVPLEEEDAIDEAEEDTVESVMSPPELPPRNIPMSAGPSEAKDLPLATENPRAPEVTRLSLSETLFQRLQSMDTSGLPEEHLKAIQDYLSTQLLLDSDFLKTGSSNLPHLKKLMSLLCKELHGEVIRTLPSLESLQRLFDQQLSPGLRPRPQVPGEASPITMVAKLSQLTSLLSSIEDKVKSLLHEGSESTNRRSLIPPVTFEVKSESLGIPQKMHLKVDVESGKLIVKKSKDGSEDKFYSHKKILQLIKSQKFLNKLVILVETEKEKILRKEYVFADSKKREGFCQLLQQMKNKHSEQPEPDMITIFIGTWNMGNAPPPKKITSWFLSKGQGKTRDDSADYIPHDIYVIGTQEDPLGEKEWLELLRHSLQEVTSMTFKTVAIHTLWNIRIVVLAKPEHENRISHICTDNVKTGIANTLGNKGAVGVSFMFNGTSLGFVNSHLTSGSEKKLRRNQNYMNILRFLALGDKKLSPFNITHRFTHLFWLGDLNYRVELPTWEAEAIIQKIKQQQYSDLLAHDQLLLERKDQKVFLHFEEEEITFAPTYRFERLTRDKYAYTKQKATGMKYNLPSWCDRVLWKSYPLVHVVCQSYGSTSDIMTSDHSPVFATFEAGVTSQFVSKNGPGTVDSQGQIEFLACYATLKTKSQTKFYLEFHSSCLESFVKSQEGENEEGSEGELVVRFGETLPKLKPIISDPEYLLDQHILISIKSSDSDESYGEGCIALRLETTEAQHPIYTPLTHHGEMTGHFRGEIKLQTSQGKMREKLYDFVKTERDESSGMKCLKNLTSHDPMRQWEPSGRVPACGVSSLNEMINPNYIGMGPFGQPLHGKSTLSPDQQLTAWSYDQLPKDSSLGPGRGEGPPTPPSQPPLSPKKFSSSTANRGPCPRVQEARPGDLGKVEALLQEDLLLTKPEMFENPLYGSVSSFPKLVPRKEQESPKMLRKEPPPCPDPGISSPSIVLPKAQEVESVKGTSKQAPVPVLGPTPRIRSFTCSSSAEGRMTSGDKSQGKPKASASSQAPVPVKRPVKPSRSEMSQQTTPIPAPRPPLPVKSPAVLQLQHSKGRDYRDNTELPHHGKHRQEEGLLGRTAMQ
Description: as §1

SHP-1 [4] = target: T1, SHP-1; assay: co-immunoprecipitation with 2.4G2 from stimulated A20IIA1.6 cells, Western blotting
Experimental: (§2) Examination was carried out on whether or not intracellular tyrosine residue is phosphorylated and a phosphatase is recruited when BIR1 is activated. With 30 μg/mL of F(ab′)₂ of rabbit anti-mouse IgG (H+L) antibody or 45 μg/mL of intact antibody thereof (manufactured by Zymed), 3×10⁷ cells of the FcR chimeric protein-stably expressing cell suspended in Ca²⁺-containing HEPES/Hanks' buffer were stimulated at 37° C. for 3 minutes. Thereafter, the cells were lysed with a lysis buffer (1% NP-40, 50 mmol/L Tris-HCl, pH 8.0, 150 mmol/L NaCl, 50 mmol/L NaF, 10% glycerol, 1 mmol/L Na₃VO₄, […], proteinnase inhibitor cocktail tablet (manufactured by Roche Diagnostics)). The cell lysate was allowed to react with Protein A/G PLUS-Agarose (manufactured by Santacruz) to which a rat anti-mouse CD16/CD32 antibody (2.4G2) (manufactured by BD Pharmingen) is bound, at 4° C. for 5 hours or more. The FcR chimeric protein and binding molecules thereof are immuno-precipitated and then Western blotting was carried out in the usual way. The membrane was allowed to react with phosphotyrosine (4G10) (manufactured by Upstate) and primary antibodies for SHP-1, SHP-2 and SHIP-1 (manufactured by Santacruz), followed by the reaction with a horse radish peroxidase (HRP)-labeled secondary antibody (manufactured by Santacruz) to detect the bands by an ECL detection system (manufactured by Amersham Biosciences).

SHP-2 [5] = target: T2, SHP-2; assay: as above
Experimental: as §2

SHIP-1 [6] = target: T3, SHIP-1; assay: as above
Experimental: as §2

Measured: binding result

T1 sequence (P29351 whole entry): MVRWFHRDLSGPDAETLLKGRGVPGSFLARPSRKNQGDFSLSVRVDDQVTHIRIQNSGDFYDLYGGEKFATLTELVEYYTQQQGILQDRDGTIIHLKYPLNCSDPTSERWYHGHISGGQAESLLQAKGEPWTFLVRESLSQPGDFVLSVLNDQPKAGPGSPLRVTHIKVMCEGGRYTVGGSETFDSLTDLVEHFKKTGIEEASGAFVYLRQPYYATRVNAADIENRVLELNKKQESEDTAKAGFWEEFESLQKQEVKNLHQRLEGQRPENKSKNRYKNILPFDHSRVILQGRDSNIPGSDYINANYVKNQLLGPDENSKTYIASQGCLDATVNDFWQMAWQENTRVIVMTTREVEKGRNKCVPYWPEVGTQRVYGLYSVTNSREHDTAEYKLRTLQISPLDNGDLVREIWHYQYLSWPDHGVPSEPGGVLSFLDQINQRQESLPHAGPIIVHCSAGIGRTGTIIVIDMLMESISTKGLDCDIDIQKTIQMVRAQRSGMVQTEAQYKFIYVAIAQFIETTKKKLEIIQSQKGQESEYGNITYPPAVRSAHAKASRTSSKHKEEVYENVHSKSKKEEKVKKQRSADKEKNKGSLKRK

Biotin-DSYKSG[pY]VYSEL (Synthesised by Sigma Genosys) [pY5: Biotin-DSYKSG^336(pY)VYSEL]
no binding: SHP-1 [1] | SHP-2 [2] | SHIP-1 [3]

B1: FcR-hBIR1 (YWF) (receptor)
chain: THDLPKAVVKLEPPWIQVLKEDTVTLTCEGTHNPGNSSTQWFHNGRSIRSQVQASYTFKATVNDSGEYRCQMEQTRLSDPVDLGVISDWLLLQTPQLVFLEGETITLRCHSWRNKLLNRISFFHNEKSVRYHHYSSNFSIPKANHSHSGDYYCKGSLGRTLHQSKPVTITVQGPKSSRSLPVLTIVAAVTGIAVAAIVIILVSLVYLKKKQVPKFKTRKAMRNNVPRDRGDTAMEVGIFANILEKQAKEESVPEVGSRPCVSTAQDEAKHSQELQFATPVFQEVAPREQEACDSFKSGFVFSELNF
notes: Stably expressed in the mouse B cell strain A20IIA1.6; Immunoprecipitated from the cell lysate with 2.4G2; also called mutant in which intracellular tyrosine residue of BIR1 was replaced by phenylalanine residue
no binding: SHP-1 [4] | SHP-2 [5] | SHIP-1 [6]
